The target of the assay is human IL-15 expressed from plasmid hIL15tPA6 (human IL-15opt1-tPA6; improved IL-15 with tPA6 SIGPRO peptide) (human, UniProt P40933 49-162). Put plainly: cell-based or functional assay.
human IL-15 expressed from plasmid hIL15tPA6 (human IL-15opt1-tPA6; improved IL-15 with tPA6 SIGPRO peptide), sequence (P40933 other isoform, or with tags, fused parts or gaps limits assumed): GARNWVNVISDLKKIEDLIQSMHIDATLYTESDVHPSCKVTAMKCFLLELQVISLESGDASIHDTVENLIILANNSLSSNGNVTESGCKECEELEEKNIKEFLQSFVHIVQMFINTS

B1: human soluble IL-15 Receptor alpha (extracellular part; plasmid AG98, hu sIL15RaOPT) (receptor)
chain: ITCPPPMSVEHADIWVKSYSLYSRERYICNSGFKRKAGTSSLTECVLNKATNVAHWTTPSLKCIRDPALVHQRPAPPSTVTTAGVTPQPESLSPSGKEPAASSPSSNNTAATTAAIVPGSQLMPSKSPSTGTTEISSHESSHGTPSQTTAKNWELTASASHQPPGVYPQGHSDTT
For the molecule B1, the “total increase in IL-15 steady-state levels on co-expression in 293 cells, ELISA (FIG. 45A)” value came to 7 fold.

B2: human IL-15 Receptor alpha, whole / full length (plasmid AG79, huIL15RaOPT) (receptor)
chain: ITCPPPMSVEHADIWVKSYSLYSRERYICNSGFKRKAGTSSLTECVLNKATNVAHWTTPSLKCIRDPALVHQRPAPPSTVTTAGVTPQPESLSPSGKEPAASSPSSNNTAATTAAIVPGSQLMPSKSPSTGTTEISSHESSHGTPSQTTAKNWELTASASHQPPGVYPQGHSDTTVAISTSTVLLCGLSAVSLLACYLKSRQTPPLASVEMEAMEALPVTWGTSSRDEDLENCSHHL
Regarding B2, the “total increase in IL-15 steady-state levels on co-expression in 293 cells, ELISA (FIG. 45A)” value came out at 4 fold.

The record behind these values is US20090082299A1 (US Dept. of Health and Human Services, published 2009).
